Columns and labels:
[1] = target: T1, Robo1 (ORIGEN Company, number: TP327713) (UniProt Q9Y6N7 26-1651, limits assumed); assay: SPR (BIAcore), Robo1 bound on CM5 chip
T1 construct: also called receptor Robo1; target protein Robo1
Experimental: (§1) The affinity constant between the prepared protein and Robo1 was determined by SPR (Surface Plasmon resonance BIAcore200). The Robo1 (ORIGEN Company, number: TP327713) was bound on CM5 chip and used to analysis the interaction between fusion protein Slit2D2-HSA and receptor Robo1. Kinetic measurements were carried out according to the method referred by Canziani et al. (2004, Anal. Biochem. 325:301-307), simultaneously, the same method was applied to measure the affinity between Slit2N protein (Slit2N is a protein at N-terminal of slit2 with a molecular weight of about 120 KDa) and Robo1.

[2] = target: T1, Robo1 (ORIGEN Company, number: TP327713); assay: SPR (BIAcore), Robo1 bound on CM5 chip; column head 'Kd (nM)'
Experimental: as §1

T1 sequence (Q9Y6N7 26-1651 limits assumed): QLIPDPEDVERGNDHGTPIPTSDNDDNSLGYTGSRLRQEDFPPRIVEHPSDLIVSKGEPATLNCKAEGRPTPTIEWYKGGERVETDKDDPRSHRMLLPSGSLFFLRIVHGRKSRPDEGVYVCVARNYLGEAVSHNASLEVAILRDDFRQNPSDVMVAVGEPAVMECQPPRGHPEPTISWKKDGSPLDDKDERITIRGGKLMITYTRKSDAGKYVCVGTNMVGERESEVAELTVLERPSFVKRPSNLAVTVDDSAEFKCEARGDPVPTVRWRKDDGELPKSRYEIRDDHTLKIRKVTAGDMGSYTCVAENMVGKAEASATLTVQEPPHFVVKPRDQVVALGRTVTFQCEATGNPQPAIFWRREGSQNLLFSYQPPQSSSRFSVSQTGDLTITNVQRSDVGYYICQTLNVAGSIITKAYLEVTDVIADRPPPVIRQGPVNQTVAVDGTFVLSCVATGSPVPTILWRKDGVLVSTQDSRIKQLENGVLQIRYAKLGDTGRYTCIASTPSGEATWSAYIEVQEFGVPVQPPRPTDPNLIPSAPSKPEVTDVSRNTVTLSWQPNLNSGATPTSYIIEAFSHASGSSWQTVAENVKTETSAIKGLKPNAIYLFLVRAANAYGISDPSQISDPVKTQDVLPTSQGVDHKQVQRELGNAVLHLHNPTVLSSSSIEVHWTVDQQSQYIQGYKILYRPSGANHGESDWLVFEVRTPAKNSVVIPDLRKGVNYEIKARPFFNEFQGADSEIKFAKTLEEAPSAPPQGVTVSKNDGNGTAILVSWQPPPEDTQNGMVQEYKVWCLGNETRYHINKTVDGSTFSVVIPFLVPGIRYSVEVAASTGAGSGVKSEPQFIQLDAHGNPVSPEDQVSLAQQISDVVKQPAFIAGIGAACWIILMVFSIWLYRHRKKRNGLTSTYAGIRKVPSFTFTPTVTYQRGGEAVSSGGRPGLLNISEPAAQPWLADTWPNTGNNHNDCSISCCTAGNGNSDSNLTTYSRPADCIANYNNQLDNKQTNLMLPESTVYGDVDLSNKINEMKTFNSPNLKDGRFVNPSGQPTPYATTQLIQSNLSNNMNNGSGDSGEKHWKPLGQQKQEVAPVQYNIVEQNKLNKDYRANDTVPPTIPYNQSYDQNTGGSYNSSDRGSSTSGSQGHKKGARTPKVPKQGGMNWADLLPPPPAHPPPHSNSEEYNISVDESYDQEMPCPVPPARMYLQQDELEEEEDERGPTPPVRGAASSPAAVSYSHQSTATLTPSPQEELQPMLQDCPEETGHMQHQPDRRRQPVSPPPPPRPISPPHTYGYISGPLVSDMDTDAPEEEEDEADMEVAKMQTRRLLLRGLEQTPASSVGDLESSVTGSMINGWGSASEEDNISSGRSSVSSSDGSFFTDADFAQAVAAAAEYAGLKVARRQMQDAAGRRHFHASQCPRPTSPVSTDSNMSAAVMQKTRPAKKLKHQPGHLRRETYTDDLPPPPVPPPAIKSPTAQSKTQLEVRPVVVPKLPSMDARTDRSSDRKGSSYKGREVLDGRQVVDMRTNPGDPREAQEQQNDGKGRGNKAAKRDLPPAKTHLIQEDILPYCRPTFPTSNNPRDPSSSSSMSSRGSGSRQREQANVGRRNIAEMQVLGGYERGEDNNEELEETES

kon [1]: 744000 M⁻¹ s⁻¹
Kd [2]: 4.5 nM
B1: Slit2N protein (ligand, UniProt O94813 31-1121, looked up)
chain: QCSCSGSTVDCHGLALRSVPRNIPRNTERLDLNGNNITRITKTDFAGLRHLRVLQLMENKISTIERGAFQDLKELERLRLNRNHLQLFPELLFLGTAKLYRLDLSENQIQAIPRKAFRGAVDIKNLQLDYNQISCIEDGAFRALRDLEVLTLNNNNITRLSVASFNHMPKLRTFRLHSNNLYCDCHLAWLSDWLRQRPRVGLYTQCMGPSHLRGHNVAEVQKREFVCSGHQSFMAPSCSVLHCPAACTCSNNIVDCRGKGLTEIPTNLPETITEIRLEQNTIKVIPPGAFSPYKKLRRIDLSNNQISELAPDAFQGLRSLNSLVLYGNKITELPKSLFEGLFSLQLLLLNANKINCLRVDAFQDLHNLNLLSLYDNKLQTIAKGTFSPLRAIQTMHLAQNPFICDCHLKWLADYLHTNPIETSGARCTSPRRLANKRIGQIKSKKFRCSAKEQYFIPGTEDYRSKLSGDCFADLACPEKCRCEGTTVDCSNQKLNKIPEHIPQYTAELRLNNNEFTVLEATGIFKKLPQLRKINFSNNKITDIEEGAFEGASGVNEILLTSNRLENVQHKMFKGLESLKTLMLRSNRITCVGNDSFIGLSSVRLLSLYDNQITTVAPGAFDTLHSLSTLNLLANPFNCNCYLAWLGEWLRKKRIVTGNPRCQKPYFLKEIPIQDVAIQDFTCDDGNDDNSCSPLSRCPTECTCLDTVVRCSNKGLKVLPKGIPRDVTELYLDGNQFTLVPKELSNYKHLTLIDLSNNRISTLSNQSFSNMTQLLTLILSYNRLRCIPPRTFDGLKSLRLLSLHGNDISVVPEGAFNDLSALSHLAIGANPLYCDCNMQWLSDWVKSEYKEPGIARCAGPGEMADKLLLTTPSKKFTCQGPVDVNILAKCNPCLSNPCKNDGTCNSDPVDFYRCTCPYGFKGQDCDVPIHACISNPCKHGGTCHLKEGEEDGFWCICADGFEGENCEVNVDDCEDNDCENNSTCVDGINNYTCLCPPEYTGELCEEKLDFCAQDLNPCQHDSKCILTPKGFKCDCTPGYVGEHCDIDFDDCQDNKCKNGAHCTDAVNGYTCICPEGYSGLFCEFSPPMVLPR
notes: domain: protein at N-terminal of slit2 with a molecular weight of about 120 KDa; Comparator in the SPR experiment

Source: patent US20180094045A1 (ASCLEPIUS SUZHOU TECHNOLOGY COMPANY GROUP, published 2018)
